Patent US11306156
One block for each substance: values may come before it.

Tests used:
[1] = molecular target: tissue factor (TF) antigen (UniProt P13726); test: SPR (ProteOn XPR36), Fab captured by His tag on anti-penta-His surface, TF injected as analyte, 1:1 fit
[2] = molecular target: tissue factor (TF) antigen (UniProt P13726); test: SPR (ProteOn XPR36), Fab captured by His tag on anti-penta-His surface, TF injected as analyte; against wild-type D3H44 Fab
[3] = molecular target: tissue factor (TF) antigen (UniProt P13726); test: SPR (ProteOn XPR36), His-tagged Fab captured on anti-penta His, TF as analyte; against wild-type D3H44 Fab
[4] = molecular target: tissue factor (TF) antigen (UniProt P13726); test: SPR (ProteOn XPR36), His-tagged Fab captured on anti-penta His, TF as analyte, 1:1 fit
[5] = molecular target: tissue factor (TF) antigen (UniProt P13726); test: SPR, Fab captured on anti-penta-His, TF as analyte, 1:1 fit
[6] = molecular target: tissue factor (TF) antigen (UniProt P13726); test: vs wild-type D3H44 Fab (KD 0.157 nM); SPR, Fab captured on anti-penta-His, TF as analyte
[7] = molecular target: tissue factor (TF) antigen (UniProt P13726); test: SPR; log ratio against wild-type D3H44 Fab; estimated value
[8] = molecular target: tissue factor (TF) antigen (UniProt P13726); test: SPR (ProteOn XPR36): Fab captured via His tag on anti-penta-His, TF as analyte, 1:1 fit; estimated value, taken from the same Fab with another L chain tag
[9] = molecular target: tissue factor (TF) antigen (UniProt P13726); test: SPR (ProteOn XPR36), Fab captured on anti-penta-His surface, TF as analyte, 1:1 fit
[10] = molecular target: tissue factor (TF) antigen (UniProt P13726); test: SPR (ProteOn XPR36), Fab captured on anti-penta-His surface, TF as analyte; reference is the wild-type D3H44 Fab
[11] = molecular target: tissue factor (TF) antigen (UniProt P13726); test: SPR; log ratio against wild-type D3H44 Fab
[12] = molecular target: tissue factor (TF) antigen (UniProt P13726); test: SPR (ProteOn XPR36): Fab captured via His tag on anti-penta-His, TF as analyte, 1:1 fit

Sequence of tissue factor (TF) antigen (P13726 33-251 limits assumed): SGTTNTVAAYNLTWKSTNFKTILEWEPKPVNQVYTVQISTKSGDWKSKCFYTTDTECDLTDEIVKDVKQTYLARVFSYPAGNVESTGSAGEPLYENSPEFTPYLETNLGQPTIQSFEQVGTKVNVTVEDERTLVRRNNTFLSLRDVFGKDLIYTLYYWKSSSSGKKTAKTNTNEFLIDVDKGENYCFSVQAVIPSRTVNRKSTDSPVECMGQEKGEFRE

Substance: D3H44 Fab heterodimer, H1 L124R_S186R / L1 Q124E_V133G_S176D_T178D_T180E (H1L1 Fab of LCCA Set # 9513)
Change in median values of KD of h1|1 Fab heterodimer compared to wild type (-(log(KD design)-log(KD wt))) [3]: -0.21
Kd [4]: 0.26 nM

Substance: D3H44 H1L1 Fab heterodimer of LCCA Sets # 9092, 9091 and 9090 (H1 L124A_L143F_Q179K, L1 Q124E_V133W_S176T_T178E_T180E)
Kd [1]: 0.16 nM
change in median KD compared to wild type, -(log(KD design)-log(KD wt)) [2]: -0.02 log

Substance: D3H44 Fab heterodimer, H L143E_K145T_Q179E / L Q124R_T178K (H1L1 of LCCA set 9657)
Change in KD with respect to wild type (-(log(KD design) - log(KD wt))) [7]: -0.08
Kd [8]: 0.19 nM

Substance: D3H44 H1L1 Fab heterodimer of LCCA Sets # 6054, 9338 and 9339 (H1 L124R, L1 V133G_S176D_T178D)
Kd [1]: 0.24 nM
change in median KD compared to wild type, -(log(KD design)-log(KD wt)) [2]: -0.18 log

Substance: D3H44 Fab heterodimer, H L143E_K145T_Q179D / L Q124R_T178R (H1L1 of LCCA sets 9635 and 9632)
Change in KD with respect to wild type (-(log(KD design) - log(KD wt))) [7]: 0.04
Change in KD with respect to wild type (-(log(KD design) - log(KD wt))) [11]: 0.04
Kd [8]: 0.14 nM
Kd [12]: 0.14 nM

Substance: H1L1 Fab heterodimer of LCCA set 10552 (D3H44 Fab, H1 L45P_L143E_K145T_H172R, L1 P44F_Q124R_Q160K_T178R)
Kd [5]: 0.29 nM
change in median KD compared to wild type, -(log(KD design)-log(KD wt)) [6]: -0.27

Substance: D3H44 Fab heterodimer, H1 L124E_L143D_K145M / L1 Q124K_V133G_Q160K_S176R (H1L1 Fab of LCCA Set # 9170, 9171 and 9172)
Change in median values of KD of h1|1 Fab heterodimer compared to wild type (-(log(KD design)-log(KD wt))) [3]: -0.24
Kd [4]: 0.27 nM

Substance: H1L1 Fab heterodimer of LCCA sets 9755 and 9756 (D3H44 Fab, H1 Q179K, L1 Q124E_L135W_Q160E_T180E)
Kd [5]: 0.28 nM
change in median KD compared to wild type, -(log(KD design)-log(KD wt)) [6]: -0.26

Substance: H1L1 Fab heterodimer of LCCA sets 9546 and 9547 (D3H44 Fab, H1 L124R_S186R, L1 V133G_S176D_T180E)
Kd [5]: 0.24 nM
change in median KD compared to wild type, -(log(KD design)-log(KD wt)) [6]: -0.18

Next, values leading:

Kd [1]: 0.16 nM
change in median KD compared to wild type, -(log(KD design)-log(KD wt)) [2]: -0.02 log
Substance: D3H44 H1L1 Fab heterodimer of LCCA Set # 9116 (H1 L124E_A139W, L1 F116A_V133G_L135V_S176R)

Kd [5]: 0.2 nM
change in median KD compared to wild type, -(log(KD design)-log(KD wt)) [6]: -0.09
Substance: H1L1 Fab heterodimer of LCCA sets 9735 and 9737 (D3H44 Fab, H1 L143R, L1 Q124E_V133E)

Change in median values of KD of h1|1 Fab heterodimer compared to wild type (-(log(KD design)-log(KD wt))) [3]: -0.05
Kd [4]: 0.18 nM
Substance: D3H44 Fab heterodimer, H1 D146G_Q179K / L1 Q38E_Q124E_Q160E_T180E (H1L1 Fab of LCCA Set # 9065)

Kd [5]: 0.35 nM
change in median KD compared to wild type, -(log(KD design)-log(KD wt)) [6]: -0.35
Substance: H1L1 Fab heterodimer of LCCA set 9746 (D3H44 Fab, H1 L45P_K145T_Q179E, L1 P44F_S131K)

Change in KD with respect to wild type (-(log(KD design) - log(KD wt))) [7]: 0.17
Kd [8]: 0.11 nM
Substance: D3H44 Fab heterodimer, H L143E_K145T_Q179D / L T178R (H1L1 of LCCA set 9641)

Kd [5]: 0.27 nM
change in median KD compared to wild type, -(log(KD design)-log(KD wt)) [6]: -0.23
Substance: H1L1 Fab heterodimer of LCCA sets 9667, 9671, 9675, 9679 and 9682 (D3H44 Fab, H1 L143E_K145T_Q179E, L1 Q124R_T178R)

Kd [9]: 0.22 nM
Change in median values of KD of h1l1 Fab heterodimer compared to wild type (-(log(KD design)-log(KD wt))) [10]: -0.15
Substance: D3H44 Fab heterodimer H1L1 of LCCA set 9181 (H1 L124E_L143D_K145M; L1 Q124K_V133G_S176R_T178K)

Kd [9]: 0.24 nM
Change in median values of KD of h1l1 Fab heterodimer compared to wild type (-(log(KD design)-log(KD wt))) [10]: -0.19
Substance: D3H44 Fab heterodimer H1L1 of LCCA sets 9257 and 9259 (H1 L124E_L143E_K145M; L1 Q124K_V133G_S176R_T178K)

Change in KD with respect to wild type (-(log(KD design) - log(KD wt))) [7]: -0.23
Change in KD with respect to wild type (-(log(KD design) - log(KD wt))) [11]: -0.23
Kd [8]: 0.27 nM
Kd [12]: 0.27 nM
Substance: D3H44 Fab heterodimer, H L143E_K145T_Q179E / L Q124R_T178R (H1L1 of LCCA sets 9679 and 9663)

Kd [1]: 0.13 nM
change in median KD compared to wild type, -(log(KD design)-log(KD wt)) [2]: 0.1 log
Substance: D3H44 H1L1 Fab heterodimer of LCCA Set # 9122 (H1 L124E_H172T, L1 V133G_S174R_S176R)
